Assay results published in PMC5059666 (2016).
One block for each molecule: values may come before it.

Columns and labels:
[1] = target: feline IgM-Fc pentamer (FLAG-tagged feline IgM-Fc with Myc-tagged feline IgJ) (cat); assay: SPR; Biacore T100, 25 °C; IgM-Fc pentamers amine-coupled on a CM5 chip (1000 RU), BSA reference cell; AIM as analyte 50 nM to 5 μM in D-PBS(-) pH 7.4, single-cycle kinetics, heterogeneous ligand model
[2] = target: feline IgM-Fc pentamer (FLAG-tagged feline IgM-Fc with Myc-tagged feline IgJ); assay: immunoblotting (non-reducing conditions) of IgM-Fc bound AIM, quantified using NIH ImageJ; details: supernatant after a co-culture of feline Fc-expressing HEK293T cells and cells expressing wild-type, chimeric, or mutant feline AIM; parent: est. 1; read off a plot
[3] = target: mouse IgM-Fc pentamer (FLAG-IgM-Fc with IgJ-Myc) (mouse) (UniProt P01872); assay: SPR; Biacore T100, 25 °C; IgM-Fc pentamers amine-coupled on a CM5 chip (1000 RU), BSA reference cell; AIM as analyte 50 nM to 5 μM in D-PBS(-) pH 7.4, single-cycle kinetics, heterogeneous ligand model
[4] = target: T1, mouse IgM-Fc pentamer (FLAG-IgM-Fc with IgJ-Myc) (mouse, UniProt P01872 1-454; P01592 22-159); assay: SPR
T1 chain 1: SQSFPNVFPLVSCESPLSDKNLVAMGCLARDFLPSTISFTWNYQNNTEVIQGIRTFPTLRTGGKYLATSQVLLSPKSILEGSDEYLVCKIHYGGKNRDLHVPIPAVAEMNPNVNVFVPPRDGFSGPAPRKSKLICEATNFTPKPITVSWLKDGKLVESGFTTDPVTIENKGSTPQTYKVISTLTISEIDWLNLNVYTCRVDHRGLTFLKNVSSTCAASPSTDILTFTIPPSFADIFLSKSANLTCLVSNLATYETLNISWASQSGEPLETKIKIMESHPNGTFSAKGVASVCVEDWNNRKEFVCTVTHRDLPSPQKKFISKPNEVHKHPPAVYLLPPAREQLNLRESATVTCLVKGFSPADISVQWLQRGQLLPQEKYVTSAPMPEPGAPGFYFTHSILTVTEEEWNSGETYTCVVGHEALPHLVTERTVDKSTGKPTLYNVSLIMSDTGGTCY
T1 chain 2: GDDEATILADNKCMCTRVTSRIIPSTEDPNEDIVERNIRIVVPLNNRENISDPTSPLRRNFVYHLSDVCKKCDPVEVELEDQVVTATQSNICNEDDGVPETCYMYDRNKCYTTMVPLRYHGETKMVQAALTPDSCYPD

[5] = target: T1, mouse IgM-Fc pentamer (FLAG-IgM-Fc with …); assay: SPR

Molecule: recombinant feline AIM (3-SRCR) (from UniProt A0A1E1GEY0) R299K; R300I; R338K
ratio to parent [2]: 0.58

B1: recombinant mouse AIM (natural protein)
chain: ESPTKVQLVGGAHRCEGRVEVEHNGQWGTVCDDGWDRRDVAVVCRELNCGAVIQTPRGASYQPPASEQRVLIQGVDCNGTEDTLAQCELNYDVFDCSHEEDAGAQCENPDSDLLFIPEDVRLVDGPGHCQGRVEVLHQSQWSTVCKAGWNLQVSKVVCRQLGCGRALLTYGSCNKNTQGKGPIWMGKMSCSGQEANLRSCLLSRLENNCTHGEDTWMECEDPFELKLVGGDTPCSGRLEVLHKGSWGSVCDDNWGEKEDQVVCKQLGCGKSLHPSPKTRKIYGPGAGRIWLDDVNCSGKEQSLEFCRHRLWGYHDCTHKEDVEVICTDFDV
Kd [3]: 5820 nM
koff [3]: 0.0223 s⁻¹
kon [3]: 3830 M⁻¹ s⁻¹

The next lines start with the values.

koff [1]: 4.38e-05 s⁻¹
kon [1]: 9.52 M⁻¹ s⁻¹
Molecule: recombinant feline AIM (4-SRCR) (from UniProt A0A1E1GEY0 20-355) (natural protein)

koff [4]: 0.000106 s⁻¹
Kd [5]: 14.6 nM
Kd [1]: 5.97 nM
koff [1]: 5.65e-05 s⁻¹
kon [1]: 9460 M⁻¹ s⁻¹
B2: recombinant feline AIM (3-SRCR) (natural protein)
chain: SFSRVRLVGGDHRCEGRVELQQDDEWVTVCDDYWNMDSVAVLCRELGCGAARKTMSGTVYGPVTPKDQKVFIHLFRCNGIEESLSQCEREDAIGCSHVEDAGAVCEPIYTGPGILGPESVRLADGPGRCQGRVEVKFRGEWSSVCQAGWSFAAAKVVCRQLGCGRATLTRRGCNKATQGQGAIWQRKASCSGQEVSLQDCLSEVWEHNCTHNEDVWVECEDPFALKLVGGRSHCEGRLEVLHKGEWGSVCDDGWGQDADRVVCRQLGCGQPLSPPVKVRRRFGPGVGRIWLDDVKCSGKEPSLEQCLHRSWGYHNCNHREDVAVVCEEQQSGLPDA
